Laboratory results: the supplement of paper PMC11780869

Tested on: Bacillus subtilis
Test: cleaved RNA product abundance (RNA/gDNA barcode ratio) relative to median wild-type variant (ratio to wild type); higher = more accumulation of the downstream cleavage product
Outline: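 The B. subtilis chromosome carried reporter mRNAs, truncated aprE or tetM, containing barcoded RNase Y cleavage-site windows mutagenized using oligos with a 9% error rate. After growth in LB at 37°C from OD600 0.0003 to 0.3, cleaved RNA was gel-selected, reverse transcribed and barcode-sequenced next to genomic DNA barcodes, with UMI collapsing. Each construct's RNA:gDNA barcode ratio was scaled to the median construct with the unmutated site. That scaled ratio is reported as cleaved product abundance.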

[1] = experiment (reporter, strain, medium): exp 6: tetM reporter, strain 168, cleavage site: cggR-gapA (positions -7 to +36 mutated)
[2] = experiment (reporter, strain, medium): exp 2b: truncated aprE reporter, strain BJT200, cleavage site: cggR-gapA (positions -7 to +36 mutated)
[3] = experiment (reporter, strain, medium): exp 4a: truncated aprE reporter, strain BJT201 with 2% xylose (RNase J1 expressed), cleavage site: cggR-gapA (positions -7 to +36 mutated)
[4] = experiment (reporter, strain, medium): exp 8a: truncated aprE reporter, strain BJT201 with 2% xylose (RNase J1 expressed), cleavage site: glnRA (positions -5 to +31 mutated)

Sequence	cleaved RNA product abundance [3]	cleaved RNA product abundance [4]	further results
ACAGACGAAGGAGACGCAAAGAAGTTATTAAGGGATGAATAATCCCTCAATATAAATATCTCTCACTTATTTAAA			cleaved RNA product abundance [1]: 1.03
ACAGACGAAGGAGCCGCAAAGAAGTTATGAACGGATGAATAATCCCTCAATATAAATATCTCTCACTTATTTAAA	0.242		cleaved RNA product abundance [2]: 0.177
CGACATGTCCCGCTTCTTTCATTAATCCCTTAACAACTGTATTGCTATATACATTTACCTTTTAAGAGGAGGAAT		0.142	
ACAGACGAAGGAGCCGCAAAGAAGTTATTCTGGGATGAATAATCCCTCAATATAAATATCTCTCACTTATTTAAA	0.742		
ACAGACGAAGGAGCCGCAAAGAAGTTATTAAGGTATGATTAATCCCTCAATATAAATATCTCTCACTTATTTAAA	0.153		
ACAGACGAAGGAGCCGCAAAGAAGCTATTATGGGATGAATAATCCCTCAATATAAATATCTCTCACTTATTTAAA	0.346		
ACAGACGAAGGAGCCGCAAAGAACTTATTAAGGGATTAATAATCCCTCAATATAAATATCTCTCACTTATTTAAA	0.621		
ACAGACGAAGGAGCCGCAAAGAAGTTATTAAGGGATGAATAATCACTCAATAAAAATATCTCTCACTTATTTAAA	0.0861		
ACAGACGAAGGAGCCGCAAAGAAGTTATTAAGGGACGAATAAACCCTCAATATAAATATCTCTCACTTATTTAAA	0.237		cleaved RNA product abundance [2]: 0.197
ACAGACGAAGGAGCCGCAAAGAAGTTATTAAGGGATGAATAATCCCTCAATATAAATATCTCTCACTATTTAAAG	1.23		cleaved RNA product abundance [2]: 1.28
ACAGACGAAGGAGCCGCAAAGAAGTTATTAAGGGATGAATAATCCTTCAATATGAATATCTCTCACTTATTTAAA	0.18		
CGACATGTCCCGCTTCTTTCATTAATCCGTTAGCAACTATTTTGCTATATACGTTTACCTTTTAAGAGGAGGAAT		0.197	
CGACATGTCCCGCTTCTTTCATTAATCCGTTTGCAACTGTTTTGCTAAATACATTTACCTTTTAAGAGGAGGAAT		0.289	
CGACATGTCCCGCTTCTTTCATTAATCCGTTAGAAAGTGTTTTGCTATATACATTTACCTTTTAAGAGGAGGAAT		0.368	
CGACATGTCCCGCTTCTTTCATTAATCCATTAGCAACTGTTTTGCTATAGACATTTACCTTTTAAGAGGAGGAAT		0.532	
ACAGACGAAGGAGCCGCAAAGAATTTATTAAGGGATGAATAATCCCTCAATATATATATCTCTCACTTATTTAAA	0.46		cleaved RNA product abundance [2]: 0.649
CGACATGTCCCGCTTCTTTCATTACTCCATTAGCAACTGTTTTGCTATATACATTTACCTTTTAAGAGGAGGAAT		1.18	
ACAGACGAAGGAGCCGCAAAGAAGTTATAAAGGGATGAATAATCCCTCAATATAAATAACTCTCACTTATTTAAA	0.424		
ACAGACGAAGGAGCCGCAAAGAAGTTAATAAGGGATGAATAATCCCTCAATATAAAAATCTCTCACTTATTTAAA	0.278		

Sequence	cleaved RNA product abundance [3]	cleaved RNA product abundance [4]	further results
CGACATGTCCCGCTTCTTTCATTAATCCGTTAGGAACTGTCTTGCTATATACATTTACCTTTTAAGAGGAGGAAT		0.138	
ACAGACGAAGGAGCCGCAAAGAAGTTATGAAGCGATGAATAATCCCTCAATATAAATATCTCTCACTTATTTAAA	0.0897		
ACAGACGAAGGAGCCGCAAAAAAGTTATTAAGGGATGAATAATCCCTCAATATAAATGTCTCTCACTTATTTAAA	0.309		cleaved RNA product abundance [2]: 0.243
CGACATGTCCCGCTTCTTTCATTACTCCGTTAGAAACTGTTTTGCTATATACATTTACCTTTTAAGAGGAGGAAT		0.478	
CGACATGTCCCGCTTCTTTCATTATTCCGTTAGTAACTGTTTTGCTATATACATTTACCTTTTAAGAGGAGGAAT		0.651	
ACAGACGAAGGAGCCGCAATGAAGTTATTAAGGGATGTATAATCCCTCAATTTAAATATCTCTCACTTATTTAAA	0.25		
ACAGACGAAGGAGCCGCAAAGAAGTTACTAAGGGATGATTAATCCCTCAATATAAATATCTCTCACTTATTTAAA			cleaved RNA product abundance [2]: 0.155
CGACATGTCCCGCTTCTTTCATTAATCCGTTAGCTACTGTTTTGCTATATACATTTACGTTTTAAGAGGAGGAAT		0.818	
ACAGACGAAGGAGCCGCAACGAAGTTATTAAGGGATGAATAATCCCTCAATATAAATCTCTCTCACTTATTTAAA	0.538		
ACAGACGAAGGAGCCGCAAAGAAGTTAATAAGGGATGAATAATCCCTCATTATAAATATCTCTCACTTATTTAAA	0.794		
ACAGACGAAGGAGCCGCAAAGCAGTTATTAAGGTATGAATAATCCCTCAATATAAATATCTCTCACTTATTTAAA	0.0937		
ACAGACGAAGGAGCCGCAAAGAAGTTATTAAGGGATGTAGAATCCCTCAATATAAATATCTCTCACTTATTTAAA	0.768		
CGACATGTCCCGCTTCTTTCATTAATCCGTTAGCAACTGTTTTGCTATACACATTTACTTTTTAAGAGGAGGAAT		0.146	
CGACATGTCCCGCTTCTTTCATTAATCCTTTAGCAACTGTTTTGCTATATACATTTACCTTTTAAGAGGAGGAAT		0.612	
CGACATGTCCCGCTTCTTTCATTAATCCGTTTGCAACTGTTTTGCTATATACATTTACGTTTTAAGAGGAGGAAT		0.661	
ACAGACGAAGGAGCCGCAAAGAAGTTATTTAGGGATGAATAATCCCTCAATACAAATATCTCTCACTTATTTAAA	0.0541		
ACAGACGAAGGAGCCGCAAAGAAGTTATTAAGGAATGAATAATCCCTCAATAAAAATATCTCTCACTTATTTAAA	0.0766		cleaved RNA product abundance [2]: 0.0974
CGACATGTCCCGCTTCTTTCATTATTCCTTTAGCAACTGTTTTGCTATATACATTTACCTTTTAAGAGGAGGAAT		1.04	
CGACATGTCCCGCTTCTTTCATTAATCCGTTAGCAACTGTTTTATTATATACATTTACCTTTTAAGAGGAGGAAT		0.698	

Sequence	cleaved RNA product abundance [3]	cleaved RNA product abundance [4]	further results
ACAGACGAAGGAGCCGCAAAGAAGTTAATAAGGGATGAATAACCCCTCAATATAAATATCTCTCACTTATTTAAA	0.192		
CGACATGTCCCGCTTCTTTCATTACTCCCTTAGCAACTGTTTTGCTATATACATTTACCTTTTAAGAGGAGGAAT		0.223	
ACAGACGAAGGAGCCGCAAAGAAGTTATTATGGGACGAATAATCCCTCAATATAAATATCTCTCACTTATTTAAA	0.174		
ACAGACGAAGGAGCCGCAAAGAAGTTATTCAGGAATGAATAATCCCTCAATATAAATATCTCTCACTTATTTAAA	0.129		cleaved RNA product abundance [2]: 0.132
ACAGACGAAGGAGCCTCAAAGAAGTTATTAAGGCATGAATAATCCCTCAATATAAATATCTCTCACTTATTTAAA			cleaved RNA product abundance [1]: 0.157
ACAGACGAAGGAGCCGCATAGAAGTTATTAAGGGATGAATAATCCCTGAATATAAATATCTCTCACTTATTTAAA	0.679		
CGACATGTCCCGCTTCTTTCATTAATCCGTTAGCAACTGTGTTACTATATACATTTACCTTTTAAGAGGAGGAAT		0.274	
ACAGACGAAGGAGCCGCAAACAAGTTATTAAGGGATGAATAATCCCTTAATATAAATATCTCTCACTTATTTAAA	0.287		
CGACATGTCCCGCTTCTTTCATTAATCCGCAGGCAACTGTTTTTCTAAATACAAATACCTTTTAAGAGGAGGAAT		0.213	
CGACATGTCCCGCTTCTTTCATTAATCCGTTAACAACTGTTTTGCTATATACACTTACCTTTTAAGAGGAGGAAT		0.329	
ACAGACGAAGGAGCCGCAAAGAAGTTATTAAGGGATTAATAATCCCTCAGTATAAATATCTCTCACTTATTTAAA	0.224		
ACAGACGAAGGAGCCGCAAAGAAGTTATTAAGGTATGAGTAATCCCTCAATATAAATATCTCTCACTTATTTAAA	0.224		
CGACATGTCCCGCTTCTTTCATTAATCTGTTAGCAACTGTTTTGCTAAATACATTTACCTTTTAAGAGGAGGAAT		1.01	
ACAGACGAAGGAGCCGCAAAGAAGTTATTAAGGGATGCATAATCCCTCAATATAAATAGCTCTCACTTATTTAAA	0.45		
ACAGACGAAGGAGCCGCAAAAAAGTTATTAAGGGATGAATAATCCCTCAAGATAAATATCTCTCACTTATTTAAA			cleaved RNA product abundance [2]: 0.251
CGACATGTCCCGCTTCTTTCATTAATCCGATAGCAACTGTTTTGCTATATAGATTTACCTTTTAAGAGGAGGAAT		1.02	
ACAGACGAAGGAGCCGCAAAGAAGTTATGAAGGGATGAATAATCCCTAAATATAAATATCTCTCACTTATTTAAA	0.711		cleaved RNA product abundance [2]: 0.38
CGACATGTCCCGCTTCTTTCATTAATCCGTTAGCAACTGTTATGCTATATACGTTTACCTTTTAAGAGGAGGAAT		0.232	
